In US20180186885A1 (University of California, published 2018):

Legend:
mouse Fzd7 P188L = molecular target: T1, mouse Fzd7 P188L (mouse, UniProt Q61090 33-572); assay: reactivity of Fab with mouse Fzd7 point mutants (FIG. 4C-D)
T1 construct: also called MEF-Fzd7P188L

[1] = molecular target: FZD7 protein on human cancer cells (OVCAR-4, MDA-MB-231, primary tumour tissue) (human, UniProt O75084 33-574); assay: cell-based or functional assay

B1: FZD7-Fab-1791 (Fab)
light: DIVMTQSPKSMSMSVGERVTLRCKASENVLNYVSWYQQKPEQSPKLLIYGASNRYTGVPDRFTGSGSATDFTLTISSVQAEDLADYHCGQSYRYPTFGAGTKLELKRADAAPTVSIFPPSSEQLTSGGASVVCFLNNFYPKDINVKWKIDGSERQNGVLNSWTDQDSKDSTYSMSSTLTLTKDEYERHNSYTCEATHKTSTSPIVKSFNRNESYPYDVPDYAS
heavy: EVQPVESGGGLVQPKGSLKLSCAASGFTFNTYAMHWVRQAPGKGLEWVARIRSKSNNYAKNYDDSVKDRFTISRDDSQSMLYLQMNNLKTEDTAMYYCVRENYGGRFDYWGQGTTLTVSSAKTTPPSVYPLAPGSAAQTNSMVTLGCLVKGYFPEPVTVTWNSGSLSSGVHTFPAVLQSDLYTLSSSVTVPSSTWPSETVTCNVAHPASSTKVDKKIVPRDSHHHHHHH
Mouse Fzd7 P188L
  binding result: binds
[1]
  fold decrease in TOP-Flash Wnt reporter (luciferase) activity in MDA-MB-231 cells treated with Wnt3a (0-5 nM), FZD7-Fab-1791 at 200 nM: ~3 fold

B2: FZD7-Fab-1291 (Fab)
light: DVVMSQSPSSLAVSVGEKVTMSCKSSQSLLYSSNQKNYLAWYQQKPGQSPKLLIYWASTRESGVPDRFTGSGSGTDFTLTISSVKAKDLAVYYCQQYYSYPTFGGGTKLEIKRADAAPTVSIFPPSSEQLTSGGASVVCFLNNFYPKDINVKWKIDGSERQNGVLNSWTDQDSKDSTYSMSSTLTLTKDEYERHNSYTCEATHKTSTSPIVKSFNRNESYPYDVPDYAS
heavy: EVQLVESGGGLVKPGGSLKLSCAASGFTFSSYAMSWVRQTPEKRLEWVATISDGGSYTRYPDKLKGRFTISRDNAKNNLYLQMSHLKSEDTAMYYCARVGGRRDYFDYWGQGTTLTVSSAKTTPPSVYPLAPGSAAQTNSMVTLGCLVKGYFPEPVTVTWNSGSLSSGVHTFPAVLQSDLYTLSSSVTVPSSTWPSETVTCNVAHPASSTKVDKKIVPRDCHHHHHHH
notes: The entries as printed end in tag-like residues
Mouse Fzd7 P188L
  binding result: binds
